Assays:
Experiment in all cases: ELISA on coated recombinant spike trimer
[1] = target: T1, Trimeric MERS-CoV spike ectodomain (tri-S) (MERS-CoV, UniProt K9N5Q8 18-1296)
T1 construct: extracellular domain
T1 sequence: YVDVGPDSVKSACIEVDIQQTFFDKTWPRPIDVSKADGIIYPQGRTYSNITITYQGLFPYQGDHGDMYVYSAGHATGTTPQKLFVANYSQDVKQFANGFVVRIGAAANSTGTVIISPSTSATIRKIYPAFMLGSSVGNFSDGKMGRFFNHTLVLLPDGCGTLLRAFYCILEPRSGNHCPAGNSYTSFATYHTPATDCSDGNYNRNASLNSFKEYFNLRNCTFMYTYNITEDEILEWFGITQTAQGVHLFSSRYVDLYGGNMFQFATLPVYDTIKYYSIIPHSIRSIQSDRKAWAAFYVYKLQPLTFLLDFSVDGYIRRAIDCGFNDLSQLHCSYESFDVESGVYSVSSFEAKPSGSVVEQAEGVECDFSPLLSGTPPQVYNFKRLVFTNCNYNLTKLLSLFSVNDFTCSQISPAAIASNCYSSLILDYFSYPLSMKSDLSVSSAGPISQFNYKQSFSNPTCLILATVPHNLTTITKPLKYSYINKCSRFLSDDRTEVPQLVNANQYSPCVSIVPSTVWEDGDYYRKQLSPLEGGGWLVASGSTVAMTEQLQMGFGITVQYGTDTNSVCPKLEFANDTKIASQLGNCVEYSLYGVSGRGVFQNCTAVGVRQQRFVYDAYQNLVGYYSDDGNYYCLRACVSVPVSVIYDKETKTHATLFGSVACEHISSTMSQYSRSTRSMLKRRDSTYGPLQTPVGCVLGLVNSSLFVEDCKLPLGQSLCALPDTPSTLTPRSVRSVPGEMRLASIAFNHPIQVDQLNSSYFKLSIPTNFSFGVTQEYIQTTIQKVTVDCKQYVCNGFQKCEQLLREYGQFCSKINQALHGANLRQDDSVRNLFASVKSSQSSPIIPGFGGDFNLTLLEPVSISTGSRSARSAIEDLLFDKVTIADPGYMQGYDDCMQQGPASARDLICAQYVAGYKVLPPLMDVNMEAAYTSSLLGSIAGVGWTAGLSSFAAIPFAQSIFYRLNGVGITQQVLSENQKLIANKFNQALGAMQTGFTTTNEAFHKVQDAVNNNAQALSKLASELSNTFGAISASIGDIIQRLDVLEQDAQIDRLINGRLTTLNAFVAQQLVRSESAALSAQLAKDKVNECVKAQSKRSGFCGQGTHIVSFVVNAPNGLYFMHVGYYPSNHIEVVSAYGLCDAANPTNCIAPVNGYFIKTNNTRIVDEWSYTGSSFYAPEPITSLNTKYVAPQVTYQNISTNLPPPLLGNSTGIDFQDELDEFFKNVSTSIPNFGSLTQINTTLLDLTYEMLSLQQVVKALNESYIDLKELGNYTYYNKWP

[2] = target: T2, Trimeric 229E-CoV spike ectodomain (tri-S) (229E-CoV, UniProt P15423 16-1115)
T2 construct: extracellular domain
T2 sequence: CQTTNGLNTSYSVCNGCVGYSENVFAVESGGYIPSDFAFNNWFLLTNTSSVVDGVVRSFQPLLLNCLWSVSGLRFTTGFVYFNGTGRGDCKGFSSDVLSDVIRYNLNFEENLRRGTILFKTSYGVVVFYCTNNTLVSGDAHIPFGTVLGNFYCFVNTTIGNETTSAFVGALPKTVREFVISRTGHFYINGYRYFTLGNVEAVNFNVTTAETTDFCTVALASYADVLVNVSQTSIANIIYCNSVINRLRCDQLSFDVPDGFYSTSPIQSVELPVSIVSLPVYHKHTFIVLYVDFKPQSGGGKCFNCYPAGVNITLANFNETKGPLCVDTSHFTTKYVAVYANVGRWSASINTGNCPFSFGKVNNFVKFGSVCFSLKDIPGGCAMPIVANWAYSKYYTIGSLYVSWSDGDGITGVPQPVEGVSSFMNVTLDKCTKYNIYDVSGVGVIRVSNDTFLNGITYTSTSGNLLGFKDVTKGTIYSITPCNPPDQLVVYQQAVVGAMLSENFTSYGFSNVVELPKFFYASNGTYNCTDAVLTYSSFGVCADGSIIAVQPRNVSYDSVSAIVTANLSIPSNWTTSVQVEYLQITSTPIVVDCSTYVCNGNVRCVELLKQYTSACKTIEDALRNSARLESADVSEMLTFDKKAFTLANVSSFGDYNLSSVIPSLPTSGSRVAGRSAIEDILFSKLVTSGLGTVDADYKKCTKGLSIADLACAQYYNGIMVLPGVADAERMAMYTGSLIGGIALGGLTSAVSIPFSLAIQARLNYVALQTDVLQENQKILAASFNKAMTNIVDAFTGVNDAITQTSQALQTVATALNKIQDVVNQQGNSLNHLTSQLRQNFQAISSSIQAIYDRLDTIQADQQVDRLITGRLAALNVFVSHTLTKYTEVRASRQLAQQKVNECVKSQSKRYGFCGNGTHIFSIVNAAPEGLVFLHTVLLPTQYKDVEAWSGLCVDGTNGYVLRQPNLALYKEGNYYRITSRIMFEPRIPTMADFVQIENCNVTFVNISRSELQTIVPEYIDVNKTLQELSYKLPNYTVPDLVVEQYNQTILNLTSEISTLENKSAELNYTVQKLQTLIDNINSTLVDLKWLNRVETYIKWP

[3] = target: T3, Trimeric HKU1-CoV spike ectodomain (tri-S) (HKU1-CoV, UniProt Q5MQD0 13-1300)
T3 construct: extracellular domain
T3 sequence: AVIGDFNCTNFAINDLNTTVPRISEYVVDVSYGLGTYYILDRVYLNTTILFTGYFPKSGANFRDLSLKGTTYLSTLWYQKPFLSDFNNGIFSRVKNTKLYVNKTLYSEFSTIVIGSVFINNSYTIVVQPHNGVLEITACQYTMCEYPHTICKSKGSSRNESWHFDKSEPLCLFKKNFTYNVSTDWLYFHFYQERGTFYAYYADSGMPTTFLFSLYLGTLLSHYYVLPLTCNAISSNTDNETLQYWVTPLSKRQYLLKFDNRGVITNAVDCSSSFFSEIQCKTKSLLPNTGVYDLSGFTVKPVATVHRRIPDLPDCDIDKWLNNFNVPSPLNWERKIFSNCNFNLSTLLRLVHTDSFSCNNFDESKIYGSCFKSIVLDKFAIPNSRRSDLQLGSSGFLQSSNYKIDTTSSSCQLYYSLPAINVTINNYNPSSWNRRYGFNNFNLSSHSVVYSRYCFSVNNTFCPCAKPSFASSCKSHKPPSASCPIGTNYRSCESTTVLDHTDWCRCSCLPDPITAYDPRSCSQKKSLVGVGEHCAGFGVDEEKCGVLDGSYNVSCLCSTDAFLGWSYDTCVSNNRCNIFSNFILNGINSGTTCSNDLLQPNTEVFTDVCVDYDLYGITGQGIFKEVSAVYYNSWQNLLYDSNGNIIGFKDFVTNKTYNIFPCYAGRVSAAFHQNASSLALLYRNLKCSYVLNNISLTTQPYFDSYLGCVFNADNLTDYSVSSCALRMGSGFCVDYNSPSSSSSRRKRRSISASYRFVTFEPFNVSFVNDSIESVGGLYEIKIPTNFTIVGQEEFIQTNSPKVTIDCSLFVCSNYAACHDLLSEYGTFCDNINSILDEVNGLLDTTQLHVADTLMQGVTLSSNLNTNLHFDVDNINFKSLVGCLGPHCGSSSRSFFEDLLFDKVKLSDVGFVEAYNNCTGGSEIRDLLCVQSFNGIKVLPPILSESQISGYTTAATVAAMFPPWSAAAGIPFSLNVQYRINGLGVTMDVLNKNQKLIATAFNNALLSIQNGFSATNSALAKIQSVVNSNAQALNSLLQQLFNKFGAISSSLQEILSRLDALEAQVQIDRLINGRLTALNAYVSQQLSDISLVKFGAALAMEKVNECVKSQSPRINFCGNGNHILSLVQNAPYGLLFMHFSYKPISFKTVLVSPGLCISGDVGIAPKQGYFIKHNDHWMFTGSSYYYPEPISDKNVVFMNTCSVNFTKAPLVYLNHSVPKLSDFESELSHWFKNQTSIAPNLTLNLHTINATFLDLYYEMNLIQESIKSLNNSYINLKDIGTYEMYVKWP

[4] = target: T4, Trimeric OC43-CoV spike ectodomain (tri-S) (OC43-CoV, UniProt P36334 14-1297)
T4 construct: extracellular domain
T4 sequence: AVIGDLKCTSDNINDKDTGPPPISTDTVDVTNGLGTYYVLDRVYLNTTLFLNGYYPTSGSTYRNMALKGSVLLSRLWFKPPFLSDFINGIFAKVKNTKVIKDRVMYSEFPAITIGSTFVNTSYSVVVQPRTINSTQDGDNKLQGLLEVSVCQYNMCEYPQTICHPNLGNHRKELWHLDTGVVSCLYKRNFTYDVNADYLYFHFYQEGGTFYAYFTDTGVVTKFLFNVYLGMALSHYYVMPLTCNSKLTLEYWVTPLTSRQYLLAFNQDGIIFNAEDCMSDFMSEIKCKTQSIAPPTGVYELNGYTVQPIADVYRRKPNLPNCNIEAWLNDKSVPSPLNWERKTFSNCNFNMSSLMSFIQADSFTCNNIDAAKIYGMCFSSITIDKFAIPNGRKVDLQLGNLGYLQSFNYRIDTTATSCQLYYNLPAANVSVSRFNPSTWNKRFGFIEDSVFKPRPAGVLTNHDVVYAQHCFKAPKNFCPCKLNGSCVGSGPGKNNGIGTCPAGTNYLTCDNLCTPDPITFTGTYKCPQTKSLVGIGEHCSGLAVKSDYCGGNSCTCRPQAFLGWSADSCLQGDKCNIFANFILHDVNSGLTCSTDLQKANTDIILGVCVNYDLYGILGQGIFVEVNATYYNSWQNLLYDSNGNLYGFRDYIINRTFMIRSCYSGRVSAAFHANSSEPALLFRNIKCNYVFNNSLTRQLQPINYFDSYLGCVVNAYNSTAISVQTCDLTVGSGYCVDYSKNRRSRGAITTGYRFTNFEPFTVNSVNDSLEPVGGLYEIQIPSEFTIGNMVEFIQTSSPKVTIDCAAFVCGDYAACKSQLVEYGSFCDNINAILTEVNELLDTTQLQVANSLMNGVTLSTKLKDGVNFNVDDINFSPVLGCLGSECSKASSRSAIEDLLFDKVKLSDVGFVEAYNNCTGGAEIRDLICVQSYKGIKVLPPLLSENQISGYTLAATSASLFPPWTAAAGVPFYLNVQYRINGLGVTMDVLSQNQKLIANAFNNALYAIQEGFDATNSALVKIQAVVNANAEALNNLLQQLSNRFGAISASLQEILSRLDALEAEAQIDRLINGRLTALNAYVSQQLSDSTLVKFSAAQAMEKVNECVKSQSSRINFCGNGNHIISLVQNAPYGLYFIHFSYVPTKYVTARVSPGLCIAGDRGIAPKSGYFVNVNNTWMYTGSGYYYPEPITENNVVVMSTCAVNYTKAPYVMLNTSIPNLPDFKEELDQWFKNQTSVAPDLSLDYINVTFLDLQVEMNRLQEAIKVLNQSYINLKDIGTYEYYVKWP

Measured: binding result

B1: Cv2.3132 IgG antibody (antibody, V domains shown)
VH: EVQLVESGGGLVKPGGSLRLSCAASGFTFSDYYMSWIRQAPGKGLEWVSYISSSGSVQYYADSVKGRFTISRDNAKNSLYLQMNSLRAEDTAVYYCARYYYDSSGYWKRLDYWGQGTLVTVSS
VL: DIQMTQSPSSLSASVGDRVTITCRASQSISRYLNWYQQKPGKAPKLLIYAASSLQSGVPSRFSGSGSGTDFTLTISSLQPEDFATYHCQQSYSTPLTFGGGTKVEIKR
notes: also called anti-HR2 antibody Cv2.3132
no binding: all assays above
